Reference: patent publication US20250276076A1, “ANTI-ALPP/ALPPL2 ANTIBODIES AND ANTIBODY-DRUG CONJUGATES” (SEAGEN INC., priority 2021, published 2025)

Tested on: ALPP/ALPPL2-expressing HEK293 cells
Assay: Flow cytometry and saturation binding of mouse antibodies
Design: species or system human
Conditions: flow cytometry
Procedure: Cynomolgus ALPP, human ALPP, ALPPL2, ALPI and ALPL-expressing HEK293 cells were used to evaluate specificity and binding affinity. Briefly, one hundred thousand target-expressing HEK293 cells were transferred to 96-well plates. Cells were pelleted by centrifugation and resuspended in 100 μL of PBS+2% w/v BSA. After blocking, cells were resuspended in PBS+2% w/v BSA with unlabeled monoclonal anti-ALPP/ALPPL2 antibodies ranging in concentration from 8 pM to 666 nM and incubated on ice for 30 minutes. Cells were washed twice in PBS and resuspended in R-PE labeled secondary goat anti-human or anti-mouse antibodies (Jackson Immunoresearch, West Grove, PA) for 30 minutes on ice. Specificity of monoclonal antibodies for human and cynomolgus ALPP and ALPPL2, but not other members of this alkaline phosphatase family was confirmed by flow cytometry. Fluorescence was analyzed using an Attune NxT flow cytometer, and the percent of saturated fluorescent signal was used to determine percent bound and to subsequently calculate apparent KD.

B1: 12F3: murine anti-ALPP/ALPPL2 monoclonal antibody selected for humanization (antibody, V domains shown)
VH: EVKLVESGGGLVQPGGSLSLSCAASGFTFTDYYMSWVRQPPGKALEWLALIRNKATGYTTEYSASVKGRFTISRDNSQSILYLQMNALRAEDSATYYCARASFYYDGKVLAYWGQGTLVTVSA
VL: DTQMTQSPSSLSASLGGKVTITCKASQDINKYIAWYQYKTGKGPRLLIHYTSTLQPGIPSRFSGSGSGRDYSFSISNLEPEDIATYYCLQYDNLYTFGGGTKLEIK
saturation levels for ALPP: higher saturation levels for ALPP than SG84-1F7
